From the RNAGym collection of RNA variant scans (doi:10.1093/molbev/msab373)

B1: Azoarcus group I ribozyme (parent)
chain: GUGCCUUGCGCCGGGAAACCACGCAAGGGAUGGUGUCAAAUUCGGCGAAACCUAAGCGCCCGCCCGGGCGUAUGGCAACGCCGAGCCAAGCUUCGGCGCCUGCGCCGAUGAAGGUGUAGAGACUAGACGGCACCCACCUAAGGCAAACGCUAUGGUGAAGGCAUAGUCCAGGGAGUGGCGAAAGUCACACAAACCGG

Variants of: B1
Experiment: reverse-splicing fitness (ratio to wild type); higher = more active; in vitro selection; Mg2+ level not given
Summary of the method: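 An in vitro group I ribozyme library with randomized positions was T7-transcribed and gel-purified. In triplicate, 10 pmol RNA in EPPS pH 7.5 was reacted with 50 pmoles of a 30-nt RNA substrate for 1 h at 37 °C across several added MgCl2 levels (1–48 mM), then stopped with EDTA. Products were reverse transcribed from a substrate-complementary primer, PCR-amplified and sequenced (HiSeq 4000). Fitness is a variant's read proportion after selection over that before, normalised to wild type.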

Question: For GUGCCUUGCGCCGGGAAACCACGCAAGGGAUGGUGUCAAAUUCGGCGAAACCUAAGCGCCCGCCCGGGCGUAUGGCAACGCUGAGCCAAGCUUCGGCGCCUGCGCCGAUGCAGGUGUAGCGACUAGACGGCACCCACCUAAGGCUAACGGUAUGGUGAAGGCAUAGUCCAGGGAGUGGCGAAAGUCACACAAACCGG [C82U A111C A120C A145U C150G], which reverse-splicing fitness is on record?
Answer: 0.00723

Question: For GUGCCUUGCGCCGGGAAACCACGCAAGGGAUGGUGUCAAAUUCGGCGAAACCUAAGCGCCCGCCCGGGCGUAUGGCAACGCUGAGCCAAGCUUCGGCGCCUGCGCCGAUGCAGGUGUAGCGACUAGACGGCACCCACCUAAGGCUAACGAUAUGGUGAAGGCAUAGUCCAGGGAGUGGCGAAAGUCACACAAACCGG [C82U A111C A120C A145U C150A], which reverse-splicing fitness is on record?
Answer: 0.0082

Question: For GUGCCUUGCGCCGGGAAACCACGCAAGGGAUGGUGUCAAAUUCGGCGAAACCUAAGCGCCCGCCCGGGCGUAUGGCAACGCUGAGCCAAGCUUCGGCGCCUGCGCCGAUGCAGGUGUAGCGACUAGACGGCACCCACCUAAGGCGAACGCUAUGGUGAAGGCAUAGUCGAGGGAGCGGCGAAAGUCACACAAACCGG [C82U A111C A120C A145G C169G U176C], which reverse-splicing fitness is on record?
Answer: 0.0254

Question: With GUGCCUUGCGCCGGGAAACCACGCAAGGGAUGGUGUCAAAUUCGGCGAAACCUAAGCGCCCGCCCGGGCGUAUGGCAACGCUGAGCCAAGCUUCGGCGCCUGCGCCGAUGCAGGUGUAGCGACUAGACGGCACCCACCUAAGGCGAACGCUAUGGUGAAGGCAUAGUCGAGGGAGAGGCGAAAGUCACACAAACCGG [C82U A111C A120C A145G C169G U176A] as the variant, how does the reverse-splicing fitness read?
Answer: 0.0195

Question: With GUGCCUUGCGCCGGGAAACCACGCAAGGGAUGGUGUCAAAUUCGGCGAAACCUAAGCGCCCGCCCGGGCGUAUGGCAACGCUGAGCCAAGCUUCGGCGCCUGCGCCGAUGCAGGUGUAGCGACUAGACGGCACCCACCUAAGGCGAACGCUAUGGUGAAGGCAUAGUCGAGGGAGGGGCGAAAGUCACACAAACCGG [C82U A111C A120C A145G C169G U176G] as the variant, how does the reverse-splicing fitness read?
Answer: 0.0058

Question: Which reverse-splicing fitness does the source give for GUGCCUUGCGCCGGGAAACCACGCAAGGGAUGGUGUCAAAUUCGGCGAAACCUAAGCGCCCGCCCGGGCGUAUGGCAACGCUGAGCCAAGCUUCGGCGCCUGCGCCGAUGCAGGUGUAGCGACUAGACGGCACCCACCUAAGGCGAACGCUAUGGUGAAGGCAUAGUCCAGGGAGCGGCGAAAGUCACACAAACCGG [C82U A111C A120C A145G U176C] here?
Answer: 0.0243

Question: With GUGCCUUGCGCCGGGAAACCACGCAAGGGAUGGUGUCAAAUUCGGCGAAACCUAAGCGCCCGCCCGGGCGUAUGGCAACGCUGAGCCAAGCUUCGGCGCCUGCGCCGAUGCAGGUGUAGCGACUAGACGGCACCCACCUAAGGCGAACGCUAUGGUGAAGGCAUAGUCCAGGGAGAGGCGAAAGUCACACAAACCGG [C82U A111C A120C A145G U176A] as the variant, how does the reverse-splicing fitness read?
Answer: 0.0134

Question: With GUGCCUUGCGCCGGGAAACCACGCAAGGGAUGGUGUCAAAUUCGGCGAAACCUAAGCGCCCGCCCGGGCGUAUGGCAACGCUGAGCCAAGCUUCGGCGCCUGCGCCGAUGCAGGUGUAGCGACUAGACGGCACCCACCUAAGGCGAACGCUAUGGUGAAGGCAUAGUCCAGGGAGGGGCGAAAGUCACACAAACCGG [C82U A111C A120C A145G U176G] as the variant, how does the reverse-splicing fitness read?
Answer: 0.00588

Question: Which reverse-splicing fitness does the source give for GUGCCUUGCGCCGGGAAACCACGCAAGGGAUGGUGUCAAAUUCGGCGAAACCUAAGCGCCCGCCCGGGCGUAUGGCAACGCUGAGCCAAGCUUCGGCGCCUGCGCCGAUGCAGGUGUAGCGACUAGACGGCACCCACCUAAGGCUAACGAUAUGGUGAAGGCAUAGUCGAGGGAGCGGCGAAAGUCACACAAACCGG [C82U A111C A120C A145U C150A C169G U176C] here?
Answer: 0.015

Question: With GUGCCUUGCGCCGGGAAACCACGCAAGGGAUGGUGUCAAAUUCGGCGAAACCUAAGCGCCCGCCCGGGCGUAUGGCAACGCUGAGCCAAGCUUCGGCGCCUGCGCCGAUGCAGGUGUAGCGACUAGACGGCACCCACCUAAGGCUAACGAUAUGGUGAAGGCAUAGUCGAGGGAGAGGCGAAAGUCACACAAACCGG [C82U A111C A120C A145U C150A C169G U176A] as the variant, how does the reverse-splicing fitness read?
Answer: 0.0132

Question: With GUGCCUUGCGCCGGGAAACCACGCAAGGGAUGGUGUCAAAUUCGGCGAAACCUAAGCGCCCGCCCGGGCGUAUGGCAACGCUGAGCCAAGCUUCGGCGCCUGCGCCGAUGCAGGUGUAGCGACUAGACGGCACCCACCUAAGGCUAACGAUAUGGUGAAGGCAUAGUCGAGGGAGGGGCGAAAGUCACACAAACCGG [C82U A111C A120C A145U C150A C169G U176G] as the variant, how does the reverse-splicing fitness read?
Answer: 0.00587

Question: With GUGCCUUGCGCCGGGAAACCACGCAAGGGAUGGUGUCAAAUUCGGCGAAACCUAAGCGCCCGCCCGGGCGUAUGGCAACGCUGAGCCAAGCUUCGGCGCCUGCGCCGAUGCAGGUGUAGCGACUAGACGGCACCCACCUAAGGCUAACGGUAUGGUGAAGGCAUAGUCAAGGGAGUGGCGAAAGUCACACAAACCGG [C82U A111C A120C A145U C150G C169A] as the variant, how does the reverse-splicing fitness read?
Answer: 0.00863

Question: With GUGCCUUGCGCCGGGAAACCACGCAAGGGAUGGUGUCAAAUUCGGCGAAACCUAAGCGCCCGCCCGGGCGUAUGGCAACGCUGAGCCAAGCUUCGGCGCCUGCGCCGAUGCAGGUGUAGCGACUAGACGGCACCCACCUAAGGCUAACGAUAUGGUGAAGGCAUAGUCAAGGGAGCGGCGAAAGUCACACAAACCGG [C82U A111C A120C A145U C150A C169A U176C] as the variant, how does the reverse-splicing fitness read?
Answer: 0.00844

Question: Which reverse-splicing fitness does the source give for GUGCCUUGCGCCGGGAAACCACGCAAGGGAUGGUGUCAAAUUCGGCGAAACCUAAGCGCCCGCCCGGGCGUAUGGCAACGCUGAGCCAAGCUUCGGCGCCUGCGCCGAUGCAGGUGUAGCGACUAGACGGCACCCACCUAAGGCUAACGAUAUGGUGAAGGCAUAGUCAAGGGAGAGGCGAAAGUCACACAAACCGG [C82U A111C A120C A145U C150A C169A U176A] here?
Answer: 0.0117

Question: For GUGCCUUGCGCCGGGAAACCACGCAAGGGAUGGUGUCAAAUUCGGCGAAACCUAAGCGCCCGCCCGGGCGUAUGGCAACGCUGAGCCAAGCUUCGGCGCCUGCGCCGAUGCAGGUGUAGCGACUAGACGGCACCCACCUAAGGCUAACGAUAUGGUGAAGGCAUAGUCAAGGGAGGGGCGAAAGUCACACAAACCGG [C82U A111C A120C A145U C150A C169A U176G], which reverse-splicing fitness is on record?
Answer: 0.00614
